Measurements: publication PMC11841055, “Structural characterization of pyruvic oxime dioxygenase, a key enzyme in heterotrophic nitrification” (Journal of Bacteriology, 2025)

test system: T1, CC(=NO)C(=O)O; test: nitrite production, diazo-coupling spectrophotometry; assay type: biochemical, Alcaligenes faecalis; settings: 20 mM Tris-HCl pH 8.0, 1.0 mM sodium ascorbate, 100 µM FeSO4, O2 as co-substrate
T1 construct: full length, 261 residues (Met1-Arg261); recombinant in E. coli; variants with C-terminal His6-tag, WT by two untagged chromatographic steps; homotetramer, Fe(II)-dependent
Excerpt: (§1) nitrite production, diazo-coupling spectrophotometry on AfPOD

Row | Molecule | Km [µM] | kcat [s⁻¹] | kcat/Km [M⁻¹ s⁻¹]
1 | AfPOD (Alcaligenes faecalis; E164A) | 943 ± 240 | 0.27 ± 0.02 | 290
2 | AfPOD (Alcaligenes faecalis; E229K) | 2150 ± 172 | 4.58 ± 0.098 | 2100
3 | AfPOD (Alcaligenes faecalis; E229K/K8E) | 2538 ± 568 | 1.76 ± 0.109 | 690
4 | AfPOD (Alcaligenes faecalis; F69A) | 41509 ± 9984 | 0.246 ± 0.018 | 5.9
5 | AfPOD (Alcaligenes faecalis; F103A) | 89 ± 22 | 0.008 ± 0.001 | 90
6 | AfPOD (Alcaligenes faecalis; H104A) | 170 ± 37 | 0.21 ± 0.013 | 1200
7 | AfPOD (Alcaligenes faecalis; K8E) | 68766 ± 20299 | 0.632 ± 0.066 | 9.2
8 | AfPOD (Alcaligenes faecalis; Q53A) | 96 ± 18 | 0.162 ± 0.008 | 1700
9 | AfPOD (Alcaligenes faecalis; Y233A) | 42247 ± 16705 | 0.012 ± 0.001 | 0.3

substrate: CC(=NO)C(=O)O; test: as above; assay type: biochemical, Alcaligenes faecalis; settings: 20 mM Tris-HCl pH 8.0, 1.0 mM sodium ascorbate, 100 µM FeSO4, O2 as co-substrate
Excerpt: as §1

Row | Molecule | Km [µM] | kcat [s⁻¹] | kcat/Km [M⁻¹ s⁻¹]
10 | AfPOD (Alcaligenes faecalis) (protein) MDTPLRDKSYFDERATKEMATHLQQVQRDTRETMAFACRILAMTEQEAGLAGQISVRSERPGAYWTLRFGLGFDEATPEDFIEVDRDLNTLSGEGMANPATRFHLWVYEARPDVNSIIHTHSPWATVLATARQPLVISQMDMTPLHNDCAFLGEWPGVPIADQEGVIISKALGDKRAIILAHHGYLTAGKSCQEATYLSVYLERAARLQVRAQAAFGPLTPVDDTLAAEAHDYLLKPSIVNATFDYWSRQTQGIAPLTKTR | 622 ± 83 | 4.8 ± 0.169 | 7700
